B1: library; numbered along this chain (parent)
chain: MAAAGGARLLRAASAVLGGPAGRWLHHAGSRAGSSGLLRNRGPGGSAEASRSLSVSARARSSSEDKITVHFINRDGETLTTKGKVGDSLLDVVVENNLDIDGFGACEGTLACSTCHLIFEDHIYEKLDAITDEENDMLDLAYGLTDRSRLGCQICLTKSMDNMTVRVPETVADARQSIDVGKTS

Variants of: B1
Experiment: scaled log2 fold change in cell abundance, elesclomol vs control (0 = silent mean, 1 = nonsense mean) (scaled log2 ratio); higher = higher viability under elesclomol (loss of FDX1 cuproptosis function)
Conditions: glucose 10 mM
Description: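 Deep mutational scan of full-length human FDX1: a pooled saturation-mutagenesis ORF library (every residue 2-184 mutated to all 19 amino acids plus stop, and silent codons where available) was expressed by lentivirus in FDX1-knockout ABC1 (14 days) or HEK293T (11 days) cells grown with elesclomol (ES) or DMSO control. Variant abundance came from ORF sequencing. The log2 fold change (ES vs control, mean of duplicates) was centred on the silent-variant mean (0) and scaled to the nonsense-variant mean (1). Higher values mean greater viability under ES, i.e. loss of FDX1 function in cuproptosis.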

[1] = with ABC1 FDX1 KO, elesclomol 5 nM, 14 days
[2] = with HEK293T FDX1 KO, elesclomol 40 nM, 11 days
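Further: variant abundance is its share of total variant reads in each endpoint sample, from next-generation sequencing of the integrated ORF PCR-amplified out of genomic DNA.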

| Variant | scaled log2 fold change [1] | scaled log2 fold change [2] |
| --- | --- | --- |
| MAYAGGARLLRAASAVLGGPAGRWLHHAGSRAGSSGLLRNRGPGGSAEASRSLSVSARARSSSEDKITVHFINRDGETLTTKGKVGDSLLDVVVENNLDIDGFGACEGTLACSTCHLIFEDHIYEKLDAITDEENDMLDLAYGLTDRSRLGCQICLTKSMDNMTVRVPETVADARQSIDVGKTS [A3Y] | -0.181 | 0.561 |
| MAIAGGARLLRAASAVLGGPAGRWLHHAGSRAGSSGLLRNRGPGGSAEASRSLSVSARARSSSEDKITVHFINRDGETLTTKGKVGDSLLDVVVENNLDIDGFGACEGTLACSTCHLIFEDHIYEKLDAITDEENDMLDLAYGLTDRSRLGCQICLTKSMDNMTVRVPETVADARQSIDVGKTS [A3I] | 0.134 | -0.0748 |
| MALAGGARLLRAASAVLGGPAGRWLHHAGSRAGSSGLLRNRGPGGSAEASRSLSVSARARSSSEDKITVHFINRDGETLTTKGKVGDSLLDVVVENNLDIDGFGACEGTLACSTCHLIFEDHIYEKLDAITDEENDMLDLAYGLTDRSRLGCQICLTKSMDNMTVRVPETVADARQSIDVGKTS [A3L] | -0.261 | 0.507 |
| MARAGGARLLRAASAVLGGPAGRWLHHAGSRAGSSGLLRNRGPGGSAEASRSLSVSARARSSSEDKITVHFINRDGETLTTKGKVGDSLLDVVVENNLDIDGFGACEGTLACSTCHLIFEDHIYEKLDAITDEENDMLDLAYGLTDRSRLGCQICLTKSMDNMTVRVPETVADARQSIDVGKTS [A3R] | 0.464 | -0.63 |
| MAPAGGARLLRAASAVLGGPAGRWLHHAGSRAGSSGLLRNRGPGGSAEASRSLSVSARARSSSEDKITVHFINRDGETLTTKGKVGDSLLDVVVENNLDIDGFGACEGTLACSTCHLIFEDHIYEKLDAITDEENDMLDLAYGLTDRSRLGCQICLTKSMDNMTVRVPETVADARQSIDVGKTS [A3P] | 0.16 | -0.173 |
| MATAGGARLLRAASAVLGGPAGRWLHHAGSRAGSSGLLRNRGPGGSAEASRSLSVSARARSSSEDKITVHFINRDGETLTTKGKVGDSLLDVVVENNLDIDGFGACEGTLACSTCHLIFEDHIYEKLDAITDEENDMLDLAYGLTDRSRLGCQICLTKSMDNMTVRVPETVADARQSIDVGKTS [A3T] | 0.122 | -0.0717 |
| MAVAGGARLLRAASAVLGGPAGRWLHHAGSRAGSSGLLRNRGPGGSAEASRSLSVSARARSSSEDKITVHFINRDGETLTTKGKVGDSLLDVVVENNLDIDGFGACEGTLACSTCHLIFEDHIYEKLDAITDEENDMLDLAYGLTDRSRLGCQICLTKSMDNMTVRVPETVADARQSIDVGKTS [A3V] | 0.0935 | 0.00813 |
| MANAGGARLLRAASAVLGGPAGRWLHHAGSRAGSSGLLRNRGPGGSAEASRSLSVSARARSSSEDKITVHFINRDGETLTTKGKVGDSLLDVVVENNLDIDGFGACEGTLACSTCHLIFEDHIYEKLDAITDEENDMLDLAYGLTDRSRLGCQICLTKSMDNMTVRVPETVADARQSIDVGKTS [A3N] | -0.349 | -0.21 |
| MAMAGGARLLRAASAVLGGPAGRWLHHAGSRAGSSGLLRNRGPGGSAEASRSLSVSARARSSSEDKITVHFINRDGETLTTKGKVGDSLLDVVVENNLDIDGFGACEGTLACSTCHLIFEDHIYEKLDAITDEENDMLDLAYGLTDRSRLGCQICLTKSMDNMTVRVPETVADARQSIDVGKTS [A3M] | -0.131 | 0.396 |
| MAKAGGARLLRAASAVLGGPAGRWLHHAGSRAGSSGLLRNRGPGGSAEASRSLSVSARARSSSEDKITVHFINRDGETLTTKGKVGDSLLDVVVENNLDIDGFGACEGTLACSTCHLIFEDHIYEKLDAITDEENDMLDLAYGLTDRSRLGCQICLTKSMDNMTVRVPETVADARQSIDVGKTS [A3K] | 0.135 | 0.17 |
| MAQAGGARLLRAASAVLGGPAGRWLHHAGSRAGSSGLLRNRGPGGSAEASRSLSVSARARSSSEDKITVHFINRDGETLTTKGKVGDSLLDVVVENNLDIDGFGACEGTLACSTCHLIFEDHIYEKLDAITDEENDMLDLAYGLTDRSRLGCQICLTKSMDNMTVRVPETVADARQSIDVGKTS [A3Q] | 0.292 | -0.249 |
| MAWAGGARLLRAASAVLGGPAGRWLHHAGSRAGSSGLLRNRGPGGSAEASRSLSVSARARSSSEDKITVHFINRDGETLTTKGKVGDSLLDVVVENNLDIDGFGACEGTLACSTCHLIFEDHIYEKLDAITDEENDMLDLAYGLTDRSRLGCQICLTKSMDNMTVRVPETVADARQSIDVGKTS [A3W] | 0.38 | 0.562 |
| MASAGGARLLRAASAVLGGPAGRWLHHAGSRAGSSGLLRNRGPGGSAEASRSLSVSARARSSSEDKITVHFINRDGETLTTKGKVGDSLLDVVVENNLDIDGFGACEGTLACSTCHLIFEDHIYEKLDAITDEENDMLDLAYGLTDRSRLGCQICLTKSMDNMTVRVPETVADARQSIDVGKTS [A3S] | 0.514 | -0.0887 |
| MAACGGARLLRAASAVLGGPAGRWLHHAGSRAGSSGLLRNRGPGGSAEASRSLSVSARARSSSEDKITVHFINRDGETLTTKGKVGDSLLDVVVENNLDIDGFGACEGTLACSTCHLIFEDHIYEKLDAITDEENDMLDLAYGLTDRSRLGCQICLTKSMDNMTVRVPETVADARQSIDVGKTS [A4C] | 0.0627 | -1.09 |
| MAADGGARLLRAASAVLGGPAGRWLHHAGSRAGSSGLLRNRGPGGSAEASRSLSVSARARSSSEDKITVHFINRDGETLTTKGKVGDSLLDVVVENNLDIDGFGACEGTLACSTCHLIFEDHIYEKLDAITDEENDMLDLAYGLTDRSRLGCQICLTKSMDNMTVRVPETVADARQSIDVGKTS [A4D] | 0.12 | -0.0733 |
| MAAEGGARLLRAASAVLGGPAGRWLHHAGSRAGSSGLLRNRGPGGSAEASRSLSVSARARSSSEDKITVHFINRDGETLTTKGKVGDSLLDVVVENNLDIDGFGACEGTLACSTCHLIFEDHIYEKLDAITDEENDMLDLAYGLTDRSRLGCQICLTKSMDNMTVRVPETVADARQSIDVGKTS [A4E] | -0.03 | -0.0483 |

Source: the supplement of paper PMC12855868
